# From patent US20210024601A1
# Biological target: CD122/CD132 receptor on cells of human PBMCs (human) (UniProt P14784)
# Experiment: cell-based or functional assay
# Chain of CD122/CD132 receptor on cells of human PBMCs (human) (P14784 27-551, chain 1 of 2): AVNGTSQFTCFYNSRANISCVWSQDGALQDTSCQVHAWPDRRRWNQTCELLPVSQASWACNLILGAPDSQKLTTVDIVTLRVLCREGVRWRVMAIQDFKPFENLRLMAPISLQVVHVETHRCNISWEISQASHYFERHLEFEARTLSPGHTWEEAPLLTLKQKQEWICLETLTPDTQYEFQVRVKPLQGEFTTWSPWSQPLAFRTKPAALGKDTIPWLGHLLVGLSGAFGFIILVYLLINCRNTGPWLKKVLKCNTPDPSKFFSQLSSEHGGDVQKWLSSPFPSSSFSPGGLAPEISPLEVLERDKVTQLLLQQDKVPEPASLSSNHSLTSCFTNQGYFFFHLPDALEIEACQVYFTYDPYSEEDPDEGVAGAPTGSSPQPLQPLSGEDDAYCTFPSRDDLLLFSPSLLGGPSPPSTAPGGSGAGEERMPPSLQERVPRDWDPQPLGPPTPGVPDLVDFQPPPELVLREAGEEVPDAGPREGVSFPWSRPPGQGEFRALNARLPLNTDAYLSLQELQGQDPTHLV
# Chain of CD122/CD132 receptor on cells of human PBMCs (human) (P31785 23-369, chain 2 of 2, further chain): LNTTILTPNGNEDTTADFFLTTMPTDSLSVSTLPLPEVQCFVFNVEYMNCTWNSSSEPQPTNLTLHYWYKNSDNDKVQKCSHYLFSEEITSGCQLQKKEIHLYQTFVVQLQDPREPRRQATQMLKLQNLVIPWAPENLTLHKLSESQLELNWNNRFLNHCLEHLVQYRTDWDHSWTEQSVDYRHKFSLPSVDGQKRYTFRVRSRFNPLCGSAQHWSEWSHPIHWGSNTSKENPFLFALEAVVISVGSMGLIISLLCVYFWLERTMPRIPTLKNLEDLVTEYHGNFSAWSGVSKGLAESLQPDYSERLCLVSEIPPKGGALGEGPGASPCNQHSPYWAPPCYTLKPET
substance,measurement,value
C-term N88D: irrelevant antibody with IL-2 N88D fused to its C-terminus (IgG-(IL-2N88D)2 of Peterson et al.),"pSTAT5 EC50, Treg (human PBMCs)",0.37 nM
same,"pSTAT5 Max. Signal, Treg (normalised to V69A/Q74P)",0.5
